Data taken from the DeepSol protein solubility set.

Test: soluble on expression in E. coli; label from the status in PepcDB or PDB records

Sequence | soluble on expression in E. coli
MFKEVGEPNFPKLEEEVLAFWKREKIFQKSVENRKGGPRYTVYEGPPTANGLPHVGHAQARSYKDLFPRYKTMRGYYAPRRAGWDTHGLPVELEVEKKLGLKSKREIEAYGIERFNQACRESVFTYEKEWEAFTERIAYWVDLENAYATLEPTYIESIWWSLKNLFDRGLLYRDHKVVPYCPRCGTPLSSHEVALGYKEIQDPSVYVRFPLKEPKKLGLEKASLLIWTTTPWTLPGNVAAAVHPEYTYAAFQVGDEALILEEGLGRKLLGEGTPVLKTFPGKALEGLPYTPPYPQALEKGYFVVLADYVSQEDGTGIVHQAPAFGAEDLETARVYGLPLLKTVDEEGKLLVEPFKGLYFREANRAILRDLRGRGLLFKEESYLHSYPHCWRCSTPLMYYATESWFIKNTLFKDELIRKNQEIHWVPPHIKEGRYGEWLKNLVDWALSRNRYWGTPLPIWVCQACGKEEAIGSFQELKARATKPLPEPFDPHRPYVDQVELACACGGTMRRVPYVIDVWYDSGAMPFASLHYPFEHEEVFRESFPADFIAEGIDQTRGWFNFLHQLGVMLFGSIAFKNVICHGLILYEMGQKMSKSKGNVVDPWDIIREFGADALRWYIYVSAPPEADRRFGPNLVRETVRDYFLTLWNVYSFFVTYANLDRPDLKNPPPPEKRPEMDRWLLARMQDLIQRVTEALEAYDPTTSARALRDFVVEDLSQWYVRRNRRRFWKNEDALDREAAYATLYEALVLVATLAAPFTPFLAEVLWQNLVRSVRPEAKESVHLADWPEADPALADEALVAQMRAVLKVVDLARAARAKSGVKTRTPLPLLLVTAPTALEREGLKRFAHEIAEELNVKEVRVLEPGEEILSYRVLPNLKLLGRKYGKLVPKIREALQRERERAAALALKGEAIPLEVEGEALTLLPEEVLLEAEAPKGYQALEKDGYVAALKVEVTEALRMEGLARDLIRLLQQARKDMGLKVSDRIRVGYEAEGPYLEALKRHGPWIAEEVLATAFGEGLFGGFEARVEDEEGKAVFHLARAE | soluble
MFKLLKTFQIVYEQMNFSKAATCLYISQPAVSNQIKQLEEELGCSLFLRNGRQDVVPTRQAEVLYNRLLNLADDWQETLTALHQARLPKETCRIAASNTFAVYYLPQLMQHLQTQYATINFVLEMNNSEEVVEKVEKHQVDFGFIEKPLITKGATREEIIQDQLVLAGDPANQNWLVREKDSGVFHYTQQYLEESNQSPTLMTVKNNEMIVKMLELGMGQSLLSRKAITEKIPFQTLGEKYWRSFYFLTRGHLKSSLLQEVKQAIYRFYQTEMNKY | not soluble
MFKNLIWLKEVDSTQERLKEWNVSYGTALVADRQTKGRGRLGRKWLSQEGGLYFSFLLNPKEFENLLQLPLVLGLSVSEALEEITEIPFSLKWPNDVYFQEKKVSGVLCELSKDKLIVGIGINVNQREIPEEIKDRATTLYEITGKDWDRKEVLLKVLKRISENLKKFKEKSFKEFKGKIESKMLYLGEEVKLLGEGKITGKLVGLSEKGGALILTEEGIKEILSGEFSLRRS | soluble
MFLINGHKQESLAVSDRATQFGDGCFTTARVIDGKVSLLSAHIQRLQDACQRLMISCDFWPQLEQEMKTLAAEQQNGVLKVVISRGSGGRGYSTLNSGPATRILSVTAYPAHYDRLRNEGITLALSPVRLGRNPHLAGIKHLNRLEQVLIRSHLEQTNADEALVLDSEGWVTECCAANLFWRKGNVVYTPRLDQAGVNGIMRQFCIRLLAQSSYQLVEVQASLEESLQADEMVICNALMPVMPVCACGDVSFSSATLYEYLAPLCERPN | soluble
MFMREIELRGHIIDSLILPKVFDKILDMGGDYKVLEFEIGKRKTDPSYAKILVIGRDERHVDEILNELRDLGAEIPEIEEVELQPAEKDMVLPEGFYSTTNHKTFIRFKGKWIEVENQKMDGAIVVYPDEMRAEVKTIRNIKKGDLVVVGHKGVRVIPPEKPREGGGLFEFMKSDASSEKPKETIIRRIAKEMYEIREKYRKTGKGGIVVVGGPAIIHTGAGWALAKLIRMGYVQALFAGNALATHDIESVLYGTSLGVDLKTGKSVPGGHSHHLRAINTIMRAGSIKDAVEQGILKEGVMYECIKNNIPYVLAGSIRDDGPLPDVITDVVKAQEKMRELLKGKDMVLMLSTMLHSIATGNLLPSWVKTICVDINPAVVTKLMDRGTSQALGIVTDVGVFLPMLVEELEKLEKEKEKSEKREELEHHHHHH | soluble
MFNSKPLLTITLLAVSSVASAAEQALDAQQVAQLIEKADSYRLQDDSSKVVSLVRLYQDQELDKTRLYHVYTRPNRESLVVFKSAVEAGQKMLMMGDNYWLQMPKSRRPIRITPMQKLLGEASIGDISTLTWSQDYQGEWKATETLTINGQSIAAYRLALTAKTKGASYQKIDLWLSEQDAFPIKADLYLRSGKLAKQAQYGRATNLGKDYVSEMTLLDSIQPSKKTVIEYQEIVPWQLDNKFYNPSYLPKANTSEL | not soluble
